Laboratory results taken from patent publication US20140206607A1 (INDIANA UNIVERSITY RESEARCH AND TECHNOLOGY, published 2014).
Numbered stars: 1 amine (or outer) side, 2 acyl side, 3 side chain; on linkers, the order of the positions; unused ones are H or OH. Square brackets hold non-standard residues; d marks the D form. Primed or numbered codes have the meaning given here. Side chains are listed from the residue outwards. Ends that are not written are not given here. * marks the point of attachment. 40K‑TE PEG = 40 kDa PEG covalently bound via thioether, formed by reaction of the free thiol of the peptide (Cys side chain) with an iodoacetic-functionalized PEG; 20K‑TE PEG″ = 20 kDa PEG attached via a thioether, formed by reacting the free thiol of the peptide with an iodoacetic-functionalized PEG; 12K‑ME PEG = 12 kDa PEG bound via maleimido-thioether; γGlu = O=C(O)[C@H](CCC(=O)[*:2])N[*:1]; Palmitoyl = CCCCCCCCCCCCCCCC(=O)*; Aib = CC(C)(N)C(=O)O

T1: GIP receptor (UniProt P48546 22-466)
T1 sequence (looked up): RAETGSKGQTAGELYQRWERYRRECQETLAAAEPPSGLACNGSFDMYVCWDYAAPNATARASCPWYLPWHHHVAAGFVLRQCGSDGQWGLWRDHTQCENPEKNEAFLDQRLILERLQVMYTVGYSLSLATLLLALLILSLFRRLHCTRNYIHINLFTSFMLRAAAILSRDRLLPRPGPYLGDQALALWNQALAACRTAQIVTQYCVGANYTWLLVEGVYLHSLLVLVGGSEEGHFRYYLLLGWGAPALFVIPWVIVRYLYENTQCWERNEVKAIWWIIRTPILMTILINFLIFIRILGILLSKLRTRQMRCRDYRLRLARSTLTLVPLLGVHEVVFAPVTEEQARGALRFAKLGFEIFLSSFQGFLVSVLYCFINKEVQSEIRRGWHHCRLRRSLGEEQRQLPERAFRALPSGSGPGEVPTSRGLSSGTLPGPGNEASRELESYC

B1: peptide of SEQ ID NO: 56 (peptide)
peptide: H[dA]QGTFTSDK([γGlu-Palmitoyl])SKYLDERAAQDFVQWLLDT-NH2
modifications: N-terminus assumed
SMILES: CCCCCCCCCCCCCCCC(=O)N[C@@H](CCC(=O)NCCCC[C@H](NC(=O)[C@H](CC(=O)O)NC(=O)[C@H](CO)NC(=O)[C@@H](NC(=O)[C@H](Cc1ccccc1)NC(=O)[C@@H](NC(=O)CNC(=O)[C@H](CCC(N)=O)NC(=O)[C@@H](C)NC(=O)[C@@H](N)Cc1c[nH]cn1)[C@@H](C)O)[C@@H](C)O)C(=O)N[C@@H](CO)C(=O)N[C@@H](CCCCN)C(=O)N[C@@H](Cc1ccc(O)cc1)C(=O)N[C@@H](CC(C)C)C(=O)N[C@@H](CC(=O)O)C(=O)N[C@@H](CCC(=O)O)C(=O)N[C@@H](CCCNC(=N)N)C(=O)N[C@@H](C)C(=O)N[C@@H](C)C(=O)N[C@@H](CCC(N)=O)C(=O)N[C@@H](CC(=O)O)C(=O)N[C@@H](Cc1ccccc1)C(=O)N[C@H](C(=O)N[C@@H](CCC(N)=O)C(=O)N[C@@H](Cc1c[nH]c2ccccc12)C(=O)N[C@@H](CC(C)C)C(=O)N[C@@H](CC(C)C)C(=O)N[C@@H](CC(=O)O)C(=O)N[C@H](C(N)=O)[C@@H](C)O)C(C)C)C(=O)O
B2: peptide of SEQ ID NO: 49 (peptide)
peptide: H[dS]QGTFTSDK(benzoylpropionyl)SKYLDERAAQDFVQWLLDGGPSSGAPPPS-NH2
B3: peptide of SEQ ID NO: 48 (peptide)
peptide: H[dS]QGTFTSDK([γGlu-adamantylacetyl])SKYLDERAAQDFVQWLLDT-NH2
B4: peptide of SEQ ID NO: 16 (peptide)
peptide: H[Aib]QGTFTSDYSKYLDEKRA[Aib]EFVC(40K‑TE PEG)WLLDE-NH2
B5: peptide of SEQ ID NO: 54 (peptide)
peptide: H[Aib]QGTFTSDYSKYLDEKRA[Aib]DFVC(40K‑TE PEG)WLLDT-NH2
B6: peptide of SEQ ID NO: 47 (peptide)
peptide: H[Aib]QGTFTSDYSKYLDEKRA[Aib]EFVC(40K‑TE PEG)WLLDGGPSSGAPPPS-NH2
B7: peptide of SEQ ID NO: 55 (peptide)
peptide: H[dS]QGTFTSDK(EDTA amide)SKYLDERAAQDFVQWLLDGGPSSGAPPPS-NH2
B8: peptide of SEQ ID NO: 45 (peptide)
peptide: H[Aib]QGTFTSDYSKYLDEKRA[Aib]EFVC(40K‑TE PEG)WLLDT-OH
B9: peptide of SEQ ID NO: 40 (peptide)
peptide: H[Aib]QGTFTSDYSKYLD[Aib]KRAKEFVQWLLDTC(40K‑TE PEG)-NH2
B10: peptide of SEQ ID NO: 59 (peptide)
peptide: H[Aib]QGTFTSDKSKYLDERRA[Aib]DFVQWLMNT-NH2
modifications: not fully specified (residue 10); printed as HaibQGTFTSDK(C16 acyl)SKYLDERRAaibDFVQWLMNT-amide
B11: peptide of SEQ ID NO: 39 (peptide)
peptide: H[Aib]QGTFTSDYSKYLD[Aib]KRAKEFVQWLLC(40K‑TE PEG)T-OH
B12: peptide of SEQ ID NO: 41 (peptide)
peptide: H[Aib]QGTFTSDYSKYLDEKRA[Aib]EFVC(40K‑TE PEG)WLL[Aib]T-NH2
B13: peptide of SEQ ID NO: 13 (peptide)
peptide: H[Aib]QGTFTSDYSKYLDEKRA[Aib]EFVC(40K‑TE PEG)WLLDT-NH2
B14: peptide of SEQ ID NO: 52 (peptide)
peptide: H[Aib]QGTFTSDYSKYLDEK[Aib]AKEFVC(40K‑TE PEG)WLLDT-NH2
B15: peptide of SEQ ID NO: 58 (peptide)
peptide: H[Aib]QGTFTSDK(Palmitoyl)SKYLDSRRA[Aib]DFVQWLMNT-NH2
modifications: N-terminus assumed
SMILES: CCCCCCCCCCCCCCCC(=O)NCCCC[C@H](NC(=O)[C@H](CC(=O)O)NC(=O)[C@H](CO)NC(=O)[C@@H](NC(=O)[C@H](Cc1ccccc1)NC(=O)[C@@H](NC(=O)CNC(=O)[C@H](CCC(N)=O)NC(=O)C(C)(C)NC(=O)[C@@H](N)Cc1c[nH]cn1)[C@@H](C)O)[C@@H](C)O)C(=O)N[C@@H](CO)C(=O)N[C@@H](CCCCN)C(=O)N[C@@H](Cc1ccc(O)cc1)C(=O)N[C@@H](CC(C)C)C(=O)N[C@@H](CC(=O)O)C(=O)N[C@@H](CO)C(=O)N[C@@H](CCCNC(=N)N)C(=O)N[C@@H](CCCNC(=N)N)C(=O)N[C@@H](C)C(=O)NC(C)(C)C(=O)N[C@@H](CC(=O)O)C(=O)N[C@@H](Cc1ccccc1)C(=O)N[C@H](C(=O)N[C@@H](CCC(N)=O)C(=O)N[C@@H](Cc1c[nH]c2ccccc12)C(=O)N[C@@H](CC(C)C)C(=O)N[C@@H](CCSC)C(=O)N[C@@H](CC(N)=O)C(=O)N[C@H](C(N)=O)[C@@H](C)O)C(C)C
B16: peptide of SEQ ID NO: 43 (peptide)
peptide: H[dS]QGTFTSDK([γGlu-Palmitoyl])SKYLDEQAAKEFIC(12K‑ME PEG)WLLDT-NH2
B17: peptide of SEQ ID NO: 46 (peptide)
peptide: H[Aib]QGTFTSDYSKYLD[Aib]KRA[Aib]EFVC(40K‑TE PEG)WLLDGGPSSGAPPPS-NH2
B18: peptide of SEQ ID NO: 38 (peptide)
peptide: H[Aib]QGTFTSDYSKYLD[Aib]KRA[Aib]EFVC(40K‑TE PEG)WLLDT-NH2
B19: peptide of SEQ ID NO: 51 (peptide)
peptide: H[Aib]QGTFTSDYSKYLDEKRA[Aib]EFVC(40K‑TE PEG)WLL[Aib]GGPSSGAPPPS-NH2
B20: peptide of SEQ ID NO: 42 (peptide)
peptide: H[Aib]QGTFTSDYSKYLDEKRA[Aib]EFV[Aib]WLLC(40K‑TE PEG)T-NH2
B21: peptide of SEQ ID NO: 44 (peptide)
peptide: H[dS]QGTFTSDK([γGlu-Palmitoyl])SKYLDEQAAKEFIC(20K‑TE PEG″)WLLDT-NH2

target: glucagon receptor (UniProt P47871 26-477, limits assumed); assay: cell-based or functional assay
Sequence (P47871 26-477 limits assumed): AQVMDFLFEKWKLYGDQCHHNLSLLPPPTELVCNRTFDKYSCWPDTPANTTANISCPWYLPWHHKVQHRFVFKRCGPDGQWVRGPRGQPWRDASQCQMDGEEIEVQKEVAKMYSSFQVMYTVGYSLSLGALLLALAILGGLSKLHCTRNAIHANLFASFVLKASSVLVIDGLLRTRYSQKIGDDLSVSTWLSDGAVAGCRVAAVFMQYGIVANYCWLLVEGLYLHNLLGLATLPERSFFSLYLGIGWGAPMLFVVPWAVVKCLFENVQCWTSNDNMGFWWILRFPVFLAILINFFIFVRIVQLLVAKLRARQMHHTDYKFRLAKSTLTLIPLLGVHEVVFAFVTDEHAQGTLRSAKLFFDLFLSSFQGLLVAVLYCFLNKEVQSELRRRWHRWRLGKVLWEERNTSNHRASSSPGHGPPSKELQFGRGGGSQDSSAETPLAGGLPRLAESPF

Row | Binder | EC50 (nM) at glucagon receptor
1 | B1 | 0.006 nM
2 | B2 | 0.063 nM
3 | B3 | 0.026 nM
4 | B4 | 0.563 nM
5 | B5 | 0.939 nM
6 | B6 | 0.591 nM
7 | B7 | 4.34 nM
8 | B8 | 0.651 nM
9 | B9 | 1.19 nM
10 | B10 | 0.051 nM
11 | B11 | 0.852 nM
12 | B12 | 0.309 nM
13 | B13 | 0.141 nM
14 | B14 | 4.5 nM
15 | B15 | 0.09 nM
16 | B16 | 0.02 nM
17 | B17 | 0.227 nM
18 | B18 | 0.141 nM
19 | B19 | 2.04 nM
20 | B20 | 1.01 nM
21 | B21 | 0.023 nM

target: GLP-1 receptor (UniProt P43220 24-463, limits assumed); assay: cell-based or functional assay

Row | Binder | EC50 (nM) at GLP-1 receptor
22 | B1 | 0.02 nM
23 | B2 | 0.01 nM
24 | B3 | 0.039 nM
25 | B4 | 0.487 nM
26 | B5 | 0.097 nM
27 | B6 | 0.052 nM
28 | B7 | 0.108 nM
29 | B8 | 1.44 nM
30 | B9 | 0.653 nM
31 | B10 | 0.01 nM
32 | B11 | 1.28 nM
33 | B12 | 0.074 nM
34 | B13 | 0.067 nM
35 | B14 | 0.054 nM
36 | B15 | 0.025 nM
37 | B16 | 0.011 nM
38 | B17 | 0.136 nM
39 | B18 | 0.31 nM
40 | B19 | 0.062 nM
41 | B20 | 0.117 nM
42 | B21 | 0.017 nM

target: T1, GIP receptor; assay: cell-based or functional assay

Row | Binder | EC50 (nM) at GIP receptor
43 | B1 | 1.64 nM
44 | B4 | 465 nM
45 | B10 | 7.48 nM
46 | B15 | 35.7 nM
